Data reported in patent US20140341881A1 (DERMADIS, published 2014).

Key:
[1] = target: T1, human kallikrein 14 (hK14) (human, UniProt Q9P0G3 25-251, limits assumed); experiment: residual hK14 activity against [I0]/[E0]
T1 construct: range counted on GenBank AAK48524 (printed), which may differ from the UniProt numbering; also called recombinant hK14
T1 sequence (looked up): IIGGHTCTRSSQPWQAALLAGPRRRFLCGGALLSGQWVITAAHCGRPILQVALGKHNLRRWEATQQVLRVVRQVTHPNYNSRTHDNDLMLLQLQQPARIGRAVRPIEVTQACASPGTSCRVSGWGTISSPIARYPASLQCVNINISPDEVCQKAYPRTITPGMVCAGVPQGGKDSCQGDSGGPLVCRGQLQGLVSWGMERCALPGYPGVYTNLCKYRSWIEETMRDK
Procedure: SI values of rAAT, rACT, and their variants were determined with hK14 incubating the protease with varying concentrations of inhibitor. After an incubation of 4 hours at 37° C. in reaction buffer (50 mM Tris, pH 7.5, 150 mM NaCl, 0.05% Triton X-100, 0.01% BSA), the residual activity was detected by the addition of fluorescent substrate (Boc-Val-Pro-Arg-AMC). Fluorescence was measured with excitation at 340 nm (±15) and emission at 485 nm (±10) in black 96 well plates using a microplate fluorescence reader FLₓ800 (Bio-Tek Instruments, Inc.). The SI value corresponds to the abscissa intercept of the linear regression analysis of fractional velocity (velocity of inhibited enzyme reaction (vi)/velocity of uninhibited enzyme reaction (v₀)) vs. the molar ratio of the inhibitor to enzyme ([I₀]/[E₀]).

[2] = target: T1, human kallikrein 14 (hK14); experiment: cell-based or functional assay
[3] = target: human chymotrypsin (Chtr) (human, UniProt P17538 19-263); experiment: cell-based or functional assay
Chain of human chymotrypsin (Chtr) (P17538 19-263): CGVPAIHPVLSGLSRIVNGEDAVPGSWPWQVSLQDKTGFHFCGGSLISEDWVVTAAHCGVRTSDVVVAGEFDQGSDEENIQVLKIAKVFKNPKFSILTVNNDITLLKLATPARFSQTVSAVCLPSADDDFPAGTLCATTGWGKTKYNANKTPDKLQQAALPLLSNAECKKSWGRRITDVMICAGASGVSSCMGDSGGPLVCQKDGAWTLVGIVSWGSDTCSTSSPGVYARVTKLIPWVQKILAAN

[4] = target: urokinase plasminogen activator (uPA) (UniProt P00749 21-431, limits assumed); experiment: cell-based or functional assay
thrombin = experiment: cell-based or functional assay
[5] = target: human plasma kallikrein (PK) (human, UniProt P03952 20-638); experiment: cell-based or functional assay
Chain of human plasma kallikrein (PK) (P03952 20-638 limits assumed): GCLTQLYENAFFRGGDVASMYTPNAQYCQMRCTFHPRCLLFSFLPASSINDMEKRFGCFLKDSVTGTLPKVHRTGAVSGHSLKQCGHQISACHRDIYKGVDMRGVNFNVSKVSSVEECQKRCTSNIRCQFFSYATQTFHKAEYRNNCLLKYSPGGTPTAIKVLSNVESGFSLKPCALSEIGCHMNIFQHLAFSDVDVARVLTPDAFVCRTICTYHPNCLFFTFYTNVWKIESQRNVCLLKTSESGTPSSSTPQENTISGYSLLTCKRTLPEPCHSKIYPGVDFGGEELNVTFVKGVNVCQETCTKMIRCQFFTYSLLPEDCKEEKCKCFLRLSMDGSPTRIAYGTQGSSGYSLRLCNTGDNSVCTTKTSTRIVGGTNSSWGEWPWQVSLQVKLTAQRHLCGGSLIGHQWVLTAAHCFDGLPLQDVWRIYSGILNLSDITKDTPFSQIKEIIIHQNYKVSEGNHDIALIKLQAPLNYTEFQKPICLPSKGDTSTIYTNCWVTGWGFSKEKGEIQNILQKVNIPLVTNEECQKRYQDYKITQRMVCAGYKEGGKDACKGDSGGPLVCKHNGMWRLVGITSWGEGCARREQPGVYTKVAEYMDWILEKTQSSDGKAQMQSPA

[6] = target: T2, human neutrophil elastase (HNE) (human, UniProt P08246 30-247, limits assumed); experiment: cell-based or functional assay
T2 sequence (looked up): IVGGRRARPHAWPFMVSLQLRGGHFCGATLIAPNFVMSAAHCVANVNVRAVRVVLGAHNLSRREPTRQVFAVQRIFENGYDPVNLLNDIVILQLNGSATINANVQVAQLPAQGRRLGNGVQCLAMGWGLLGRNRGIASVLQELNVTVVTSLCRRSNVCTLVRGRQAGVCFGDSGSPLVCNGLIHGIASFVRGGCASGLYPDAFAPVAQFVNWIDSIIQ

[7] = target: T1, human kallikrein 14 (hK14); experiment: progress curve; * [I0]/[E0] < 5 * SI
Procedure: The association rate constants for interactions of hK14, with different inhibitors were determined under pseudo-first order conditions using the progress curve method (Morrison and Walsh, 1988). Under these conditions, a fixed amount of enzyme (2 nM) was mixed with different concentrations of inhibitor (0-80 nM) and an excess of substrate (20 μM). Reactions were performed in reaction buffer (50 mM Tris pH 7.5, 150 mM NaCl, 0.05% Triton X-100, 0.01% BSA) at 37° C. for 45 min and the rate of product formation was measured using a FLₓ800 fluorescence 96-well microplate reader (Biotek, USA) Inhibition is considered to be irreversible over the course of reaction and the progression of enzyme activity is expressed as product formation (P), beginning at a rate (vz) and is inhibited over time (t) at a first-order rate (kobs), where the rate constant is only dependent on the inhibitor concentration.

| Binder | SI (stoichiometry of inhibition) [1] | % Inhibition [2] [%] | % Inhibition [3] [%] | % Inhibition [4] [%] | % Inhibition (thrombin) [%] | % Inhibition [5] [%] | % Inhibition [6] [%] | kon [7] [M⁻¹ s⁻¹] |
| --- | --- | --- | --- | --- | --- | --- | --- | --- |
| AATC11 (other, human, mature) HHHHHHEDPQGDAAQKTDTSHHDQDHPTFNKITPNLAEFAFSLYRQLAHQSNSTNIFFSPVSIATAFAMLSLGTKADTHDEILEGLNFNLTEIPEAQIHEGFQELLRTLNQPDSQLQLTTGNGLFLSEGLKLVDKFLEDVKKLYHSEAFTVNFGDTEEAKKQINDYVEKGTQGKIVDLVKELDRDTVFALVNYIFFKGKWERPFEVKDTEEEDFHVDQVTTVKVPMMKRLGMFNIQHCKKLSSWVLLMKYLGNATAIFFLPDEGKLQHLENELTHDIITKFLENEDRRSASLHLPKLSITGTYDLKSVLGQLGITKVFSNGADLSGVTEEAPLKLSKAVHKAVLTIDEKGTEAAGAMFLEAIPRQTNPEVKFNKPFVFLMIEQNTKSPLFMGKVVNPTQK | 2.8 | 100 | 18 | 0 | 100 | 8 | 0 |  |
| AATE5 (other, human, mature) HHHHHHEDPQGDAAQKTDTSHHDQDHPTFNKITPNLAEFAFSLYRQLAHQSNSTNIFFSPVSIATAFAMLSLGTKADTHDEILEGLNFNLTEIPEAQIHEGFQELLRTLNQPDSQLQLTTGNGLFLSEGLKLVDKFLEDVKKLYHSEAFTVNFGDTEEAKKQINDYVEKGTQGKIVDLVKELDRDTVFALVNYIFFKGKWERPFEVKDTEEEDFHVDQVTTVKVPMMKRLGMFNIQHCKKLSSWVLLMKYLGNATAIFFLPDEGKLQHLENELTHDIITKFLENEDRRSASLHLPKLSITGTYDLKSVLGQLGITKVFSNGADLSGVTEEAPLKLSKAVHKAVLTIDEKGTEAAGAMFLEANQRSSPPEVKFNKPFVFLMIEQNTKSPLFMGKVVNPTQK | 10 |  |  |  |  |  |  |  |
| AATF3 (other, human, mature) HHHHHHEDPQGDAAQKTDTSHHDQDHPTFNKITPNLAEFAFSLYRQLAHQSNSTNIFFSPVSIATAFAMLSLGTKADTHDEILEGLNFNLTEIPEAQIHEGFQELLRTLNQPDSQLQLTTGNGLFLSEGLKLVDKFLEDVKKLYHSEAFTVNFGDTEEAKKQINDYVEKGTQGKIVDLVKELDRDTVFALVNYIFFKGKWERPFEVKDTEEEDFHVDQVTTVKVPMMKRLGMFNIQHCKKLSSWVLLMKYLGNATAIFFLPDEGKLQHLENELTHDIITKFLENEDRRSASLHLPKLSITGTYDLKSVLGQLGITKVFSNGADLSGVTEEAPLKLSKAVHKAVLTIDEKGTEAAGAMFLEAPDRHMPPEVKFNKPFVFLMIEQNTKSPLFMGKVVNPTQK | 11.7 |  |  |  |  |  |  |  |
| AATC11g (other) MRGSHHHHHHGSDDPQGDAAQKTDTSHHDQDHPTFNKITPNLAEFAFSLYRQLAHQSNSTNIFFSPVSIATAFAMLSLGTKADTHDEILEGLNFNLTEIPEAQIHEGFQELLRTLNQPDSQLQLTTGNGLFLSEGLKLVDKFLEDVKKLYHSEAFTVNFGDTEEAKKQINDYVEKGTQGKIVDLVKELDRDTVFALVNYIFFKGKWERPFEVKDTEEEDFHVDQATTVKVPMMKRLGMFNIQHCKKLSSWVLLMKYLGNATAIFFLPDEGKLQHLENELTHDIITKFLENEDRRSASLHLPKLSITGTYDLKSVLGQLGITKVFSNGADLSGVTEEAPLKLSKAVHKAVLTIDEKGTEAAGAMFLEAIGRQTNPEVKFNKPFVFLMIEQNTKSPLFMGKVVNPTQK | 9 |  |  |  |  |  |  | 42000 |

More lines, now with the values ahead:

| SI (stoichiometry of inhibition) [1] | % Inhibition [2] [%] | % Inhibition [3] [%] | % Inhibition [4] [%] | % Inhibition (thrombin) [%] | % Inhibition [5] [%] | % Inhibition [6] [%] | kon [7] [M⁻¹ s⁻¹] | Binder |
| --- | --- | --- | --- | --- | --- | --- | --- | --- |
| 3.6 | 100 | 27 | 17 | 51 | 100 | 0 |  | AATG1 (other, human, mature) HHHHHHEDPQGDAAQKTDTSHHDQDHPTFNKITPNLAEFAFSLYRQLAHQSNSTNIFFSPVSIATAFAMLSLGTKADTHDEILEGLNFNLTEIPEAQIHEGFQELLRTLNQPDSQLQLTTGNGLFLSEGLKLVDKFLEDVKKLYHSEAFTVNFGDTEEAKKQINDYVEKGTQGKIVDLVKELDRDTVFALVNYIFFKGKWERPFEVKDTEEEDFHVDQVTTVKVPMMKRLGMFNIQHCKKLSSWVLLMKYLGNATAIFFLPDEGKLQHLENELTHDIITKFLENEDRRSASLHLPKLSITGTYDLKSVLGQLGITKVFSNGADLSGVTEEAPLKLSKAVHKAVLTIDEKGTEAAGAMFLEGSLRSIPPEVKFNKPFVFLMIEQNTKSPLFMGKVVNPTQK |
| 2.3 | 100 | 17 | 0 | 0 | 100 | 0 |  | AATG1g (other, human, mature) HHHHHHEDPQGDAAQKTDTSHHDQDHPTFNKITPNLAEFAFSLYRQLAHQSNSTNIFFSPVSIATAFAMLSLGTKADTHDEILEGLNFNLTEIPEAQIHEGFQELLRTLNQPDSQLQLTTGNGLFLSEGLKLVDKFLEDVKKLYHSEAFTVNFGDTEEAKKQINDYVEKGTQGKIVDLVKELDRDTVFALVNYIFFKGKWERPFEVKDTEEEDFHVDQVTTVKVPMMKRLGMFNIQHCKKLSSWVLLMKYLGNATAIFFLPDEGKLQHLENELTHDIITKFLENEDRRSASLHLPKLSITGTYDLKSVLGQLGITKVFSNGADLSGVTEEAPLKLSKAVHKAVLTIDEKGTEAAGAMFLEGSLRGIPPEVKFNKPFVFLMIEQNTKSPLFMGKVVNPTQK |
| 4.8 | 100 | 84 | 0 | 0 | 0 | 0 | 65000 | ACTC11 (other, also called rACTC11) MRGSHHHHHHSRHPNSPLDEENLTQENQDRGTHVDLGLASANVDFAFSLYKQLVLKAPDKNVIFSPLSISTALAFLSLGAHNTTLTEILKGLKFNLTETSEAEIHQSFQHLLRTLNQSSDELQLSMGNAMFVKEQLSLLDRFTEDAKRLYGSEAFATDFQDSAAAKKLINDYVKNGTRGKITDLIKDLDSQTMMVLVNYIFFKAKWEMPFDPQDTHQSRFYLSKKKWVMVPMMSLHHLTIPYFRDEELSCTVVELKYTGNASALFILPDQDKMEEVEAMLLPETLKRWRDSLEFREIGELYLPKFSISRDYNLNDILLQLGIEEAFTSKADLSGITGARNLAVSQVVHKAVLDVFEEGTEASAATAVKITLRQTNVETRTIVRFNRPFLMIIVPTDTQNIFFMSKVTNPKQA |
| 11.7 |  |  |  |  |  |  | 22000 | ACTG1v (other) MRGSHHHHHHSRHPNSPLDEENLTQENQDRGTHVDLGLASANVDFAFSLYKQLVLKAPDKNVIFSPLSISTALAFLSLGAHNTTLTEILKGLKFNLTETSEAEIHQSFQHLLRTLNQSSDELQLSMGNAMFVKEQLSLLDRFTEDAKRLYGSEAFATDFQDSAAAKKLINDYVKNGTRGKITDLIKDLDSQTMMVLVNYIFFKAKWEMPFDPQDTHQSRFYLSKKKWVMVPMMSLHHLTIPYFRDEELSCTVVELKYTGNASALFILPDQDKMEEVEAMLLPETLKRWRDSLEFREIGELYLPKFSISRDYNLNDILLQLGIEEAFTSKADLSGITGARNLAVSQVVHKAVLDVFEEGTEASAATAVVGSLRSALVETRTIVRFNRPFLMIIVPTDTQNIFFMSKVTNPKQA |
